This note sets out measurements from patent publication US20070027096, “Aptamers to human epidermal growth factor receptor-3” (published 2007).

A word on the IC50: it is the midpoint of a concentration-inhibition curve. A low value points to higher potency.

The target of series [1] is T1, HER3 extracellular domain (HER3ECD, ErbB3) (Homo sapiens, UniProt P21860 SEQ:20-643). Briefly: EMSA; 8 pmol RNA with 24 pmol HER3ECD, 37 C. As to conditions: tags: C-terminal V5 and hexa-His (pMT/BiP/V5-His A, S2 insect cells); chain copies: oligomeric (self-associated; stated); label: internal 32P. As for the experimental part:
(§1) For screening purposes, 8 pmol of internally labeled aptamer were incubated in binding buffer with 24 pmol of HER3ECD at 37° C. for 10 minutes and analyzed on 6% non-denaturing polyacrylamide gels as described above. Aptamers displaying substantial shift were reverse transcribed and sequenced. For subsequent analysis of A30 binding, internally labeled and unlabeled A30 was denatured at 90° C. for 2 min in PBS and cooled on ice for 1 min. A30 was incubated with HER3ECD in binding buffer for 10 min at 37° C. at the indicated concentrations and in the presence 0.5 μM tRNA and was analyzed by electrophoresis on a non-denaturing 6% polyacrylamide gel at 4° C. Were indicated, HER3ECD and heregulin were premixed at room temperature three minutes before the addition of A30.

Series [2] has as its target T1, HER3 extracellular domain (HER3ECD, …). Briefly: EMSA; 8 pmol RNA with 24 pmol HER3ECD, 37 C; A18 and A30 do not displace each other. The note with it: tags: C-terminal V5 and hexa-His (pMT/BiP/V5-His A, S2 insect cells); chain copies: oligomeric (self-associated; stated); label: internal 32P. As for the experimental part:
as §1
For orientation: A gel shift assay detects complexes by their altered migration in electrophoresis.

In series [3] the target is HER2 extracellular domain (HER2-ECD) (Homo sapiens, UniProt P04626 SEQ:23-652). Briefly: EMSA; 0.5 uM protein. As to conditions: label: internal 32P; triple hairpin loop.
For another series, the target named is T2, heregulin (Homo sapiens).
T2 chain: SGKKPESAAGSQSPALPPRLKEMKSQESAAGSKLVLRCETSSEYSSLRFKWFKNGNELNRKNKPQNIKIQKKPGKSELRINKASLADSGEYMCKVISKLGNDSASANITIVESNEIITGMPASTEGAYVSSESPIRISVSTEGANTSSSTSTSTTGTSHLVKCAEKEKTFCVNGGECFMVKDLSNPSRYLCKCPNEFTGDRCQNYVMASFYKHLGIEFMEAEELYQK
Briefly: EMSA; 0.5 uM protein. The note with it: label: internal 32P; triple hairpin loop.

Series [4] concerns the target T1, HER3 extracellular domain (HER3ECD, …). Nature of the series: EMSA; apparent Kd by displacement with unlabeled A30; no heregulin; 10 mM HEPES pH 7.4, 100 mM NaCl, 2.5 mM MgCl2, 37 C, 0.5 uM tRNA. The note with it: tags: C-terminal V5 and hexa-His (pMT/BiP/V5-His A, S2 insect cells); chain copies: oligomeric (self-associated; stated); label: internal 32P; triple hairpin loop. How it is done:
as §1
(§2) Several lines of evidence provide evidence that the interaction of A30 with HER3ECD involves at least two different modes of binding. […] Addition of heregulin has two consequences. […] With respect to the heregulin-induced increase and dual mode of binding, we observed a similar, although less pronounced, effect for A30 binding to MCF7 cells (FIG. 4B+C). MCF7 cells endogenously express both HER3 and HER2. […] The addition of heregulin results in an increase in the number of A30 binding sites FIG. 4B), but this increase is relatively small (25% total 17% for low affinity and 8% for high affinity sites).

The target in series [5] is T3, HER3 on MCF7 cells (with endogenous HER2) (Homo sapiens, UniProt P21860 SEQ:20-1342). Briefly: competition; high affinity site on MCF7 cells, 4 C, PBS, +/-0.2, Scatchard. The note with it: label: internal 32P; triple hairpin loop. As for the experimental part:
(§3) MCF7 cells (ATCC) were grown to 70% confluency on 6 well plates and washed with ice cold PBS. Following the washes, cells were incubated at 4° C. with 1 mL ice cold PBS or PBS containing 200 nM heregulin. After four hours an equal volume of ice cold PBS containing two microliter internally ³²P labeled A30 aptamer (80,000 cpm/μL), 20 μL RNAse inhibitor (20 units/μL), and varying concentrations of unlabeled aptamer were added. After four hours incubation, the supernatant was removed, and cells were washed three times with ice cold PBS. Displaced and bound radiolabeled aptamer was measured in duplicate.
as §2

The target of series [6] is T3, HER3 on MCF7 cells (with endogenous …). Nature of the series: competition; low affinity site on MCF7 cells, 4 C, PBS, +/-2.2, Scatchard. As to conditions: label: internal 32P; triple hairpin loop. As for the experimental part:
as §3, §2

Series [7] has the same target. Nature of the series: cell_activity; half-maximal inhibition of heregulin-specific MCF7 growth; maximum 50% inhibition. The note with it: label: internal 32P; triple hairpin loop. As for the experimental part: MCF7 cells were seeded in 96 well plates (2500 cells/well) in RPMI, 2% fetal bovine serum, 2 units of RNAse inhibitor/ml and varying concentrations of heregulin and aptamer. After two days, cell growth was determined using an MTT/tetrazolium based assay (Promega). Cell growth was equated with the absorbance of converted and solubilized dye at 560 nm. All samples were determined in triplicate.
Next, we evaluated the ability of A30 to interfere with receptor activation by wild type heregulin. […] In contrast, the activation of HER2 by EGF, which proceeds through hetetodimers of EGFR and HER2, is not inhibited by A30 (FIG. 7b). The low intensity of tyrosine phosphorylation of HER2 after stimulation by EGF is a reflection of the lower levels of EGFR (5000/cell) compared to HER2 (15,000) and HER3 (25,000) (see, e.g. Aguilar et al. (1999) Oncogene 18, 6050-62) and the fact that EGFR signaling proceeds only in part through heterodimers with HER2. To evaluate if the inhibition of tyrosine phosphorylation is reflected in a reduction in heregulin-specific growth stimulation, we incubated MCF7 cells in the presence of different concentrations of A30 and heregulin for two days (FIG. 8). […] Half-maximal inhibition occurs at around 1 nM A30. The addition of A30 alone has little effect on the growth of MCF7 cells.

T1 sequence (P21860 20-643 E560G): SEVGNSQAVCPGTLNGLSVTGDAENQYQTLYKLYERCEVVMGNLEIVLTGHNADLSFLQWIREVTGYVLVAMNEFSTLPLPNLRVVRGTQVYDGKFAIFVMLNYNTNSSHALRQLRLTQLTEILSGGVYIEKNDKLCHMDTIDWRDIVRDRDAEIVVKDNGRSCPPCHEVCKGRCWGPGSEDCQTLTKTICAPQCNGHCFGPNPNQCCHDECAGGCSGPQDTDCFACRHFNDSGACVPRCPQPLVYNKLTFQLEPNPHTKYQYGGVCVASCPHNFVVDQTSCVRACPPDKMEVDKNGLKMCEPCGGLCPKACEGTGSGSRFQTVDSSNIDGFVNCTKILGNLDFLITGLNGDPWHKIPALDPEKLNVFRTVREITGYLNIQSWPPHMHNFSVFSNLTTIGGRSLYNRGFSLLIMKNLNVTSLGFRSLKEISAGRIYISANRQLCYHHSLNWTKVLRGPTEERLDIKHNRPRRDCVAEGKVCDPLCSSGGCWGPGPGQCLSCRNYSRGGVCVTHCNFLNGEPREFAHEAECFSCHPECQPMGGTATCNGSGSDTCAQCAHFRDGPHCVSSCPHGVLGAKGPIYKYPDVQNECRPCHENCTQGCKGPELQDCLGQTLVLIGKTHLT
T3 sequence (P21860 20-1342 E560G/E1064G): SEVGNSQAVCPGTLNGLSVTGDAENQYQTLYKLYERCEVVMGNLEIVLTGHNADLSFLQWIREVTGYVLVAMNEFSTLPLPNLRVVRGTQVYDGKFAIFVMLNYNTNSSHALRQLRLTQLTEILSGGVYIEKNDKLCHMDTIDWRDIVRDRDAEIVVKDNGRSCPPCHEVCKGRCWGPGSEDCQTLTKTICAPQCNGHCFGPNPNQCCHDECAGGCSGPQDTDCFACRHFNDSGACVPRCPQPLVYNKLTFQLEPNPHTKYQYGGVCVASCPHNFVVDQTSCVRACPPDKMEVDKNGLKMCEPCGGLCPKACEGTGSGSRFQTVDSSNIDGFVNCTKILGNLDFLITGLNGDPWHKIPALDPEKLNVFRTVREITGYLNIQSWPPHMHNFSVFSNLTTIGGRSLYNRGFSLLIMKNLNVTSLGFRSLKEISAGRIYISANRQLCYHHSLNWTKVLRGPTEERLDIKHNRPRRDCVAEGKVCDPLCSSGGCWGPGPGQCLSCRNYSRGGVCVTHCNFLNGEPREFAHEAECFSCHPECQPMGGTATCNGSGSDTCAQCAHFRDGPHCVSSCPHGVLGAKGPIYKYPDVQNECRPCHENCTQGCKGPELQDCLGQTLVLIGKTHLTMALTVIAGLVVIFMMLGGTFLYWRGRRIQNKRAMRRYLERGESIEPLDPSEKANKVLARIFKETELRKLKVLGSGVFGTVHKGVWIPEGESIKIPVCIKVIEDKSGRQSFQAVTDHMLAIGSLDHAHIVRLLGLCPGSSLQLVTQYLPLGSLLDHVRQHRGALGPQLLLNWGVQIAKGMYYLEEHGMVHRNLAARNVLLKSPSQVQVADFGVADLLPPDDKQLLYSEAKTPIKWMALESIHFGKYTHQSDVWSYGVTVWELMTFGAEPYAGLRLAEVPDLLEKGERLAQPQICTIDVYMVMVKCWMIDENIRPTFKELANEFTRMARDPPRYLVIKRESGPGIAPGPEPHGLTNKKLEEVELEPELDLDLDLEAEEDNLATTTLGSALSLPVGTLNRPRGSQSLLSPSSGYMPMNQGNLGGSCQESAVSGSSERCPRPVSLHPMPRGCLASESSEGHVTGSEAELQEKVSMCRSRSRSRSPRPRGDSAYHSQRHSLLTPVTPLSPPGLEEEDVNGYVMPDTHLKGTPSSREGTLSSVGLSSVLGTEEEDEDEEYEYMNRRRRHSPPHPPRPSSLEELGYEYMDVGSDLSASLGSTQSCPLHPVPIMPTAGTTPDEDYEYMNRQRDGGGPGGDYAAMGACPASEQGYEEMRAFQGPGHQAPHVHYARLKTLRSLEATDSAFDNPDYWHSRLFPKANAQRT

B1: A37 (ssRNA)
RNA: GGGAAUUCCGCGUGUGCUUGAGAGGUCGUGCCAACUCUCAAGGUUGUCUUUGCUCUCCGCUCUGUGGUCCGUUCGGGAUCCUC
On to B1, for which the binding result in series [1] is “binds”.

B2: A6 (ssRNA)
RNA: GGGAAUUCCGCGUGUGCAGAACAAUCGCAUAGGCCGCAAGGUUAGUUUCGUUGUCCGCCCGGUGCAGUCCGUUCGGGAUCCUC
As for B2, the binding result in series [1] was “binds”.

B3: A18 (ssRNA)
RNA: GGGAAUUCCGCGUGUGCACGAGUAUAGCCCACAUGGCACGACAGGGACGUUUCAUGUGCACAGUUGGUCCGUUCGGGAUCCUC
Take B3: the binding result in series [2] is “binds”.

B4: A23 (ssRNA)
RNA: GGGAAUUCCGCGUGUGCGAGGGGCGAGGACGCCGAGUAUAGCCCCUAGAGGUGGAUGUUUCACGGUGUCCGUUCGGGAUCCUC
Regarding B4, in series [1], the binding result is reported as “binds”.

B5: A19 (ssRNA)
RNA: GGGAAUUCCGCGUGUGCAGAUCAGGACAGAGCGCACAGGUGCCAUCCUGGUCUAACGCCCUCGAUGGUCCGUUCGGGAUCCUC
B5: the binding result in series [1] is listed as “binds”.

B6: A30 (ssRNA)
RNA: GGGAAUUCCGCGUGUGCCAGCGAAAGUUGCGUAUGGGUCACAUCGCAGGCACAUGUCAUCUGGGCGGUCCGUUCGGGAUCCUC
For B6, the binding result (in series [3]; with heregulin) was “no binding” in each case. Further, the Kd in series [4] stood at 45 nM; in series [5] it was 3.3 nM; in series [6], 21 nM. Further, the IC50 in series [7] is roughly 1 nM.
